The nanobody polyreactivity screen of Harvey et al. (2022)

Assay: yeast display, Sf9 membrane polyspecificity reagent, FACS + sequencing; frameworks hold sequencing errors
In short: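 In a synthetic yeast display library (Saccharomyces cerevisiae BJ5465), nanobody expression was induced with galactose for 36–48 hours. FACS gates were set low and high (top ~1%) using anti-HA fluorescence for expression and streptavidin fluorescence for binding of the Sf9 membrane reagent. Each polyreactivity label is drawn from the gate of origin.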

| Sequence | polyreactivity (PSR sort gate) |
| --- | --- |
| QVQLVDSGGGLVQAGGSLRLSCAASGRIFRGYAMGWYRQAPGKERELVAAITSGGITNYADSVKGRFTISRDNAKNTVYLQMNRLKPEDTAVYYCNTRRGWRDFDYWGQGTQVTVSS | low polyreactivity |
| QVQLVDSGGGLVQAGGSLRLSCAASGRIFSWYTMGWYRQAPGKERELVAVITSGGTTKYADSVKGRFTISRDNAKNTVYLQMNSLKPEDTAVYYCNGAGRDYAVRWGSFDYWGQGTQVTVSS | low polyreactivity |
| QVQLVDSGGGLVQAGGSLRLSCAASGRIFYRYALGWYRQAPGKERELVAAITRGGRTNYADSVKGRFTISRDNAQNTVYLQMNSLKPEDTAVYYCRPLWYGFDYWGQGTQVTVSS | high polyreactivity |
| QVQLVDSGGGLVQAGGSLRLSCAASGRTFGSYAMGWSRQAPGKERELVAAISSSGGRTYYADSVKGRFTISRDNAKNTVYLQLNSLKPEDTAVYYCNARWRFLYDYWGQGTQVTVSS | high polyreactivity |
| QVQLVDSGGGLVQAGGSLRLSCAASGRTFSYYGMGWYRQAPGQERELVACIRRRGGSTYYADSVKGRFTISRDNAKNNVSLQMNSLNPEDTAVYYCTAATYGDYSNLGYGYWGQGTQVTVSS | high polyreactivity |
| QVQLVDSGGGLVQAGGSLRLSCAASGRTFVSYAMGWYRQAPGKERELVAAISRSGGRTYYADSVKGRFTISRDNAMNSVYLQMNCLKPEDTAVYYCATKQYGTLARYDYWGQGSQVTVSS | high polyreactivity |
| QVQLVDSGGGLVQAGGSLRLSCAASGRTFYSYAMGWYRQAPGKERELVSAISRNGGSTYYADSVKGRFTISRDNAKNSVYLQMNSLKPEDTAVYYCAAKRAGPYGISKGMDYWGQGTQVTVSS | high polyreactivity |
| QVQLVDSGGGLVQAGGSLRLSCAASGRTFYYYAMGWSRQEPGKEREFDADISGRGGTTYYADSVKGRFTISRDNAKKTVYLLMNSLKPEDTAVYYCAARSVSTLRYTSRKLRYDYWGQGTQVSVSS | high polyreactivity |
| QVQLVDSGGGLVQAGGSLRLSCAASGRTFYYYAMGWYRQAPGKERELVADIRGRGGSTYYADSVKGRFTISRDNAKNTVYLQMNSLKPEDTAVYYCARRSPNPYSIYYYWGQGTQVTVSS | high polyreactivity |
| QVQLVDSGGGLVQAGGSLRLSCAASGRTLWYYTMGWYRQAPGKERELVADITRGTSTNYADSVKVRFTISRDNAKNTVYLQMNSLKPEDTAVYYCNRAHGRSRYSRDYDSWGQGTQVTVSS | low polyreactivity |
| QVQLVDSGGGLVQAGGSLRLSCAASGSIFKRNAMGWYRQAPGKERELVATISSRGGSTYYADSVKGRFTISRDNAKNTVYLQMNSLKPEDTAVYYCSARGYQITGNYYTPTSKYNYWGQGTQVTVSS | high polyreactivity |
| QVQLVDSGGGLVQAGGSLRLSCAASGSIFPPYAMGWYRQAPGKERELVARISWSTSSTNYADSVKGRFTISRDNAKNTVYLQMNSLKPEVTAVYYCAADYYVFPGYDYWGQGTQVTVSS | high polyreactivity |
| QVQLVDSGGGLVQAGGSLRLSCAASGSIFRPYARGWYRQAPWKERELVASIRWYDGSTYYADSVKGRFTSSRDNAMNTVYLQMNSLKPEDSAVYYCAADYYSQLAGIFDYWGQGTQVTVSS | low polyreactivity |
| QVQLVDSGGGLVQAGGSLRLSCAASGSIFSSYVRGWYRQAPGKERELVAAITSRGGSTYYADSVKGRFTISRDNAKNTVYLQMNSLKPEDTAVYYCAKGGTLGGYWGQGTQVTVSS | high polyreactivity |
| QVQLVDSGGGLVQAGGSLRLSCAASGSIFTAYAMGWYRQAPGKERELVAAITSGGSTNYADSVKGRFTISRDNAKNTVYLQMNSLKPEDTAVYYCNADDYWLDSWSSVLWYDYWGQGTQVTVSS | low polyreactivity |
| QVQLVDSGGGLVQAGGSLRLSCAASGSIFVFYDMGWYSQAPGKEREMVATISSGGGGTYYTDSVKGRFTISRDNAKNTVYLQMNSLKPEDTAVYYCAAEGDKYGKGYGYWGQGTQVTVSS | low polyreactivity |
| QVQLVDSGGGLVQAGGSLRLSCAASGSIFVHYAMGWSRQAPGKEWELVAAITSSGGRTYYADSVKGRFTISRDNAKKTVYLQMNSLKPEDTEVYYCAAKQGRYNIYSNYDYWGQGTQVTVSS | high polyreactivity |
| QVQLVDSGGGLVQAGGSLRLSCAASGSIFYAYAMGWYRQATGKERQLLAVISRGGITNYSDSVKGRFTISRDNAKNTFFLQMNSLNPEDTAVYYCAAATSAWGYLRRYGYWGQGTQVTVSS | low polyreactivity |
| QVQLVDSGGGLVQAGGSLRLSCAASGSIFYNYVMGWCRQAPGKEREMVAAISSGGGTNYADSVKGRFTISRDNAKYTVYLQMNSLKPEDTAVYYCAKASAYGLANDYDYWGQGTQVTVSS | low polyreactivity |
| QVQLVDSGGGLVQAGGSLRLSCAASGSIIKRKAMGWYRQAPGKERELVASISSGGSTHYADSVKGRFTISRDNAKNTVYLQMNSLKPEDTAVYYCAATSIRWSVGSFRRDYWGQGTQVTVSS | low polyreactivity |
| QVQLVDSGGGLVQAGGSLRLSCAASGSISSFYAMGWYRQAPGKERELVAGITSGGSTNYADSVKGRFTISRDNAKNTVYLQMNSLKPEDTAVYYCAAVYKGAGTHFDVFVKEFDYWGQGTQVTVSS | low polyreactivity |
| QVQLVDSGGGLVQAGGSLRLSCAASGSISYYNAMGWYRQAPGKERELVATITDSGGSTYYADSVKGRFTISRDNAKNTVYLQMNSLKPEDTAVYYCAVDYSEWYSIYDYWGQGTQVTVSS | low polyreactivity |

| Sequence | polyreactivity (PSR sort gate) |
| --- | --- |
| QVQLVDSGGGLVQAGGSLRLSCAASGSIVYYNDMGWYRQAPGKEREVVATITSGGTTYYADSVKGRFTISRDNAKNSVYVQMNSLKGEDTAVYYCAATSYPGFDDWGQGSQVTVSS | low polyreactivity |
| QVQLVDSGGGLVQAGGSLRLSCAASGSTFALYAMGWYRQAPGKERELVAAITWSGTGTYYADSVKGRFTISRDNAKNTVYLQMNSLKPEDTAVYSCNAEYWWWGLGNDYWGQGTQVTVSS | low polyreactivity |
| QVQLVDSGGGLVQAGGSLRLSCAASGSTFDTNVMGWYRQAPGKERELVAAIDVSGGSTYYADSVKGRFTISRDNAKNTVYLQMNSLKPVDTAVYYCAAEDGQYGMDYWGQGTQVSVSS | low polyreactivity |
| QVQLVDSGGGLVQAGGSLRLSCAASGSTFISYAMGWYRQAPGKERELVAAISRRGDSTYYADSVKGRFTISRDNAKNNVYLEMNSLKPEDTAVYYCAADVSGDKGSIHMNYWGQGTLVTVSS | low polyreactivity |
| QVQLVDSGGGLVQAGGSLRLSCAASGSTFPIYAMEWYRQAPGKERELVAAISSGGSTYYADSVKGRFTISRDNAKNTVYLQMNSLKPEDTAVYYCAADYSQPNFEYYYWGQGTQVTVSS | low polyreactivity |
| QVQLVDSGGGLVQAGGSLRLSCAASGSTFRRNALGWYRQAPGKERELVAAITRSGGRTYYADSVKGRFTISRDNAKNTVYLQMNSLKPEDTAVYYCAARHAPTRYGYWGQGTQVTVSS | high polyreactivity |
| QVQLVDSGGGLVQAGGSLRLSCAASGSTFSHYTMGWYRQAPGKERELVAAINYGGASTYYADSVKGRFTISRDNAKNTVYLQMNSLKPEDTAVYYCAAANRPSEQDNYWGQGTQVTVSS | low polyreactivity |
| QVQLVDSGGGLVQAGGSLRLSCAASGSTFTRNVMGWYRQAPGKERELVASISRSGGRTYYADSVKGRFTISRDNAMNTVYLQMNSMKPDDTAVYYCAAKYFYYLDPYDYWGQGTHVTVSS | high polyreactivity |
| QVQLVDSGGGLVQAGGSLRLSCAASGSTFVKYTMGWYRQAPGKERELVAVISRSGGSTYYADSVKGRFTISRDNAKNTVYLQMNSLKPEDTAVYYCAAHFSRDFDYWGLGTQVTVSS | high polyreactivity |
| QVQLVDSGGGLVQAGGSLRLSCAASGSTFYAYVMGWYRQAPGKERELVAGITWSGGSTYYADSVKGRFTISRDNAKNTVYLQMNSLKPEDTAVYYCAADYYNTYGYDYWGQGTQVTVSS | low polyreactivity |
| QVQLVDSGGGLVQAGGSLRLSCAASGSTFYEYAMGWYRQPPGKERELVAAITSGGSTYYADSVKGRFTISRDNAKNTVYLQMNSLKPEDTAVYYCAADPRIRRGDRSTHGYDYWGQGTQVTVSS | low polyreactivity |
| QVQLVDSGGGLVQAGGSLRLSCAASGSTFYFKAMGWYRQAPGKEREFVATIRSGGSTYYADSVKGRFTISRDYAKNSVYLQMNSLTPEDTAVYYCAADLVDSYQWSIFLYGYWGQGTQVTVSW | low polyreactivity |
| QVQLVDSGGGLVQAGGSLRLSCAASGSTLAYYTMGWYRQAPGKERELVAAITSGGFTHYADSVKGRFTISRDNAKNTVYLQMNSLKPEDTAVYYCAAKRGPVYYGYYYLGQGTQVTVSS | high polyreactivity |
| QVQLVDSGGGLVQAGGSLRLSCAASGSTVTSYAMGWYRQAPGKERELVAAITYGSGTTYADSVKGRFTISRDNAKNTVYLQMNSLKPEDTAVYYCAADFYYPVLGHGFPTYEYDYWGQGTQVTVSS | low polyreactivity |
| QVQLVDSGGGLVQAGGSLRLSCAASGYTFRYYAMGWYRQEPGKERELVAAITRSGTTYYADSVKGRFTISRDNAKNTVYIQMNSLKTDDTAVYYCNTRVTGNRLGYYYWGQGTQVTVSS | high polyreactivity |
| QVQLVDSGGGLVQAGGSLRLSCADSGSIFSRNTMGWYRQAPGKERELVAGISSSGSRTYYADSVKGRFTISRDNAKNTVYLQMNSLKPEDTAFYYCAAGSQRRYYHTNCDSFNYSGQGTQVTVSS | low polyreactivity |
| QVQLVDSGGGLVQAGGSLRLSCADSGSINGNYVMGWYRQAPRKERELVAAIRWTGGSTYYADTVKGRFTISRDNAKNTVYLQMNSLKPEDTAVYYCNAESTYYPSGEDYWGQGTQVNVSS | high polyreactivity |
| QVQLVDSGGGLVQAGGSLRLSCAGSGLTFRFYAMVWYRQAPGKEREFVAAISSSGTTTYYADSVKGRFTISRDNAKNTVYLQMNSLKPEDTADFYCNKEYTTYGYDLEYDFWGQGTQVTVSS | low polyreactivity |
| QVQLVDSGGGLVQAGGSLRLSCGASGLIFKYNVMGWYRQAPGKERELVAAITWGGTRTYYADSVKGRFTISRDTAKNTVYLQMNSLKPEDTAVYYCAVRSARIERNYWGQGTQVTVSS | low polyreactivity |
| QVQLVDSGGGLVQAGGSLRLSCPASGGIFGEYAMGWYRPAPGKEMELVAAINWSGGSTYYADSVKGRFTISRDNAKNTVYLQMNSLKPEDTAVYYCAADRGYPGNVDYWGQGSQVTVSS | low polyreactivity |
| QVQLVDSGGGLVQAGGSLRLSCPASGSIIPYNALGWYRQAPGKERELVATISSGGSTNYADSVKGRFTISRDNAKNTVYFQMNSLKPEDTAVYYCAADVIVFYYAPNYWGDIEYGYWGQGTQVTVSS | low polyreactivity |
